Results reported in patent CN113461818A (UNIV XUZHOU MEDICAL, dated 2021).

Target: T1, CD276抗原 (UniProt Q5ZPR3 29-466, limits assumed)
T1 construct: also called CD276靶抗原; CD276目的蛋白
T1 sequence (looked up): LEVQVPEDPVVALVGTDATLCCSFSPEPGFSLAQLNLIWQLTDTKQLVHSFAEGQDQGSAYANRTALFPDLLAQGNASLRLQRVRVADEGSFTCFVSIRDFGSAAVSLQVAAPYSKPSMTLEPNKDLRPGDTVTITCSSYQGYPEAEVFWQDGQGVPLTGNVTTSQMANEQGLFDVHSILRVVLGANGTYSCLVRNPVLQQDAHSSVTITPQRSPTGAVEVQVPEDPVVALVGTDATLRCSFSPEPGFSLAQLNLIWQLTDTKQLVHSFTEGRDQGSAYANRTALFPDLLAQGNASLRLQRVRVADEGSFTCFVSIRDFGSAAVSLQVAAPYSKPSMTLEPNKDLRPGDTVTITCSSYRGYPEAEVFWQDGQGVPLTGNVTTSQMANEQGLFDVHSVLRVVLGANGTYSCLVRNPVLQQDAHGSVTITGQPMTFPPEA
Assay: phage ELISA on coated antigen, TMB, OD450nm

B1: CD276-03 monoclonal phage (clone 03 scFv displayed on phage) (scFv)
scFv: QVQLVQSGGGVVQPGRSLRLSCSASGFTFNSHGMHWVRQAPGKGLEWVGVIWYDGSNAYYADSAKGRFTISRDNSKNSVYLQLNSLGVEDTALYYCAKSDRPHPMGFYYYMDVWGQGTTVTVSSGGGGSGGGGSQSALTQPASVSGSPGQSITISCTGTSSDVGGYNYVSWYQQHPGKAPKLMIYDVSNRPSGVSNRFSGSKSGNTASLTISGLQAEDEADYYCSSYTSSSTLVFGGGTK
notes: The phage coat protein fusion partner is not described; also called 克隆03
- binding result: no binding
